Measurements taken from article PMC7642778.
Each block holds one substance with its values, some of them ahead of it.

Legend:
[1] = target: monothiol glutaredoxin-1 from Clostridium oremlandii (C16S) (Clostridium oremlandii (strain OhILAs)); experiment: crystal structure; m-cGrx1 alone (β1-swap), formed in the presence of hydrogen peroxide; crystals from 0.1 M HEPES pH 7.5, 20% PEG 400, 8% PEG 8000, 20°C
[2] = target: monothiol glutaredoxin-1 from Clostridium oremlandii (C16S) (Clostridium oremlandii (strain OhILAs)); experiment: crystal structure; m-cGrx1–cMsrA complex (β3-swap), formed by incubation with 5 mM methionine sulfoxide at 4°C for 2 h and purified on Superdex 75; crystals from 0.1 M sodium phosphate/citric acid pH 4.2, 0.4 M potassium phosphate (dibasic)/1.6 M sodium phosphate (monobasic), 20°C
[3] = target: dithiol glutaredoxin-1 from Clostridium oremlandii (strain OhILAs) (Clostridium oremlandii (strain OhILAs)); experiment: crystal structure; d-cGrx1 alone; crystals from 0.1 M sodium phosphate/citric acid pH 4.2, 0.2 M lithium sulfate, 20% PEG 1000, 20°C

stoichiometry N [1]: 4
stoichiometry N [2]: 4
Substance: monothiol glutaredoxin-1 from Clostridium oremlandii (C16S) (enzyme)

stoichiometry N (cGrx1 per cMsrA (four cGrx1 : two cMsrA)) [2]: 2
Substance: methionine sulfoxide reductase A from Clostridium oremlandii (enzyme)

stoichiometry N [3]: 2
Substance: dithiol glutaredoxin-1 from Clostridium oremlandii (strain OhILAs) (enzyme)
